{
  "source": "paper PMC12214486",
  "binders": {"B1": {"name": "self-annealed 19-mer product DNA (pre-translocation) (dsDNA)", "DNA 1": "TCAAGGGTCCTAGGACCCT", "DNA 2": "TCAAGGGTCCTAGGACCCT"}, "B2": {"name": "self-annealed 17-mer product DNA (post-translocation) (dsDNA)", "DNA 1": "TCAAGGGTCCGGACCCT", "DNA 2": "TCAAGGGTCCGGACCCT"}, "B3": {"name": "product DNA formed in crystallo from 18-mer plus dTTP (dsDNA)", "DNA 1": "TCAAGGGTCCTAGGACCCT", "DNA 2": "TCAAGGGTCCTAGGACCCT"}, "B4": {"name": "self-annealed 18-mer substrate DNA, template A (dsDNA)", "DNA 1": "TCAAGGGTCCTAGGACCC", "DNA 2": "TCAAGGGTCCTAGGACCC"}},
  "key": {"[1]": {"target": "T1, DNA polymerase iota catalytic core (UniProt Q9UNA4 26-443)", "T1 sequence": "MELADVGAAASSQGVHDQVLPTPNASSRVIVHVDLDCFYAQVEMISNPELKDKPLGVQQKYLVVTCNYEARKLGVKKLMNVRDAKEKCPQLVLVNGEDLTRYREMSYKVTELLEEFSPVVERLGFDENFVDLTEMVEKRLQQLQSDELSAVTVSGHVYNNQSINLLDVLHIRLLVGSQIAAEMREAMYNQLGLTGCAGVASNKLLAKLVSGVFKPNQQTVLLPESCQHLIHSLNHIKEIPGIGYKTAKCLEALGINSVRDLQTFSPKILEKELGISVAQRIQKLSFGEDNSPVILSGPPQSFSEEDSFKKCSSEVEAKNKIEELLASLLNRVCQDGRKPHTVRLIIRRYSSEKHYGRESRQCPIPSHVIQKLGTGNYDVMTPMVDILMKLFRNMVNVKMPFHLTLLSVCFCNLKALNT", "assay": "X-ray crystallography"}, "[2]": {"target": "T1, DNA polymerase iota catalytic core", "assay": "X-ray crystallography", "remark": "listed apart in the source"}, "[3]": {"target": "T1, DNA polymerase iota catalytic core", "assay": "time-lapse X-ray crystallography"}, "[4]": {"target": "T1, DNA polymerase iota catalytic core", "assay": "X-ray crystallography", "remark": "listed apart in the source"}},
  "data": [
    {"binder": "B1", "values": [
      {"measurement": "binding result", "setting": "[1]", "result": "binds"}
    ]},
    {"binder": "B2", "values": [
      {"measurement": "binding result", "setting": "[2]", "result": "binds"}
    ]},
    {"binder": "B3", "values": [
      {"measurement": "binding result", "setting": "[3]", "result": "binds"}
    ]},
    {"binder": "B4", "values": [
      {"measurement": "binding result", "setting": "[4]", "result": "binds"}
    ]}
  ]
}
